# Measured values from patent US20250179187A1, “ANTI PD-L2 ANTIBODY” (REJUVERON SENESCENCE THERAPEUTICS AG, priority 2022, published 2025).
# Numbering of substitutions follows the chain as printed.
# T1: human PD-L2 antigen (Homo sapiens, UniProt Q9BQ51)
# T1 sequence (Q9BQ51 20-273): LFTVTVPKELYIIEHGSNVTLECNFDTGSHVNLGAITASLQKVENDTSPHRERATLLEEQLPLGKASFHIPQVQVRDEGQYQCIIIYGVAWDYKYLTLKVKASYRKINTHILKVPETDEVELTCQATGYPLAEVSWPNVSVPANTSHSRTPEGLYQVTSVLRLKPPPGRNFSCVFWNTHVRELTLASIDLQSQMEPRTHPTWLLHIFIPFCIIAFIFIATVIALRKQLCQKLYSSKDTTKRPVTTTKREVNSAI
# B1: VH4/VK2: humanized anti-PD-L2 variant; SEQ ID NO: 5/SEQ ID NO: 11 (antibody, V domains shown)
# VH: QVQLVQSGAEVKKPGSSVKVSCKASGYAFSNYFIEWVKQPPGKGLEWIGLNIPGSGGSNYAEKFKGRVTITADKSTSTAYMELSSLRSEDTAVYYCARRRLPPDWYFDVWGQGTTVTVSS
# VL: DVVMTQSPLSLPVTLGQPASISCRSSQSLVHSDGNTYLHWYQQKPGQPPKLLIYKVSNRFSGVPDRFSGSGSGTDFTLKISRVEAEDVGVYYCSQSTHVPWTFGGGTKVEIK
# B2: VH1/VK0: anti-PD-L2 variant on hIgG1; SEQ ID NO: 2/SEQ ID NO: 9 (antibody, V domains shown)
# VH: B1 VH with V11L, V68A, R87T, T91S, Y95F
# VL: B1 VL with S7T, T14S, Q17D, P18Q, Q42L, P48S, V88L, Y92F, V109L
# modifications: human IgG1 constant regions
# B3: VH6/VK1: humanized anti-PD-L2 variant; SEQ ID NO: 6/SEQ ID NO: 10 (antibody, V domains shown)
# VH: B1 VH with A28S
# VL: B1 VL with Y92F
# B4: VH8/VK2: humanized anti-PD-L2 variant; SEQ ID NO: 8/SEQ ID NO: 11 (antibody, V domains shown)
# VH: B1 VH with V68A
# VL: B1 VL
# B5: VH0/VK0: chimeric anti-PD-L2 antibody, mouse Fab on human IgG1 backbone; SEQ ID NO: 1/SEQ ID NO: 9 (antibody, V domains shown)
# VH: QVQLQQSGAELVRPGTSVKVSCKASGYAFSNYFIEWVKQRPGQGLEWIGLNIPGSGGSNYAEKFKGKATLTADKSSSTAYMQLSSLTSEDSAVYFCARRRLPPDWYFDVWGTGTTVTVSS
# VL: B1 VL with S7T, T14S, Q17D, P18Q, Q42L, P48S, V88L, Y92F, V109L
# modifications: human IgG1 constant regions
# B6: VH6/VK2: humanized anti-PD-L2 variant; SEQ ID NO: 6/SEQ ID NO: 11 (antibody, V domains shown)
# VH: B1 VH with A28S
# VL: B1 VL
# B7: VH6/VK3: humanized anti-PD-L2 variant; SEQ ID NO: 6/SEQ ID NO: 12 (antibody, V domains shown)
# VH: B1 VH with A28S
# VL: B1 VL with D33G, Y92F
# B8: VH7/VK2: humanized anti-PD-L2 variant; SEQ ID NO: 7/SEQ ID NO: 11 (antibody, V domains shown)
# VH: B1 VH with V11L, V68A
# VL: B1 VL
# Target: T1, human PD-L2 antigen
# Test: Single cycle kinetics on Biacore 8K, binding to human PD-L2 antigen
# Conditions: Table 2, cell culture supernatants
# Text: Table 2: Single cycle kinetic parameters of chimeric (VH0/VK0) and humanized variants (tested as cell culture supernatants) binding to human PD-L2 antigen as determined using the Biacore 8K. As used herein, the term “KD” is intended to refer to the dissociation equilibrium constant of a particular antibody-antigen interaction, ka is the binding rate constant and kd is the dissociation rate constant. The binding affinity of antibodies of the disclosed invention may be measured or determined by standard antibody-antigen assays. The relative KD was calculated by dividing the KD of the humanized variant by that of the VH0/VK0 assayed in the same experiment.
row,kd,Molecule
1,0.000129 s⁻¹,B1
2,0.000109 s⁻¹,B2
3,0.000121 s⁻¹,B3
4,0.000121 s⁻¹,B4
5,9.72e-05 s⁻¹,B5
6,0.000128 s⁻¹,B6
7,0.000444 s⁻¹,B7
8,0.000118 s⁻¹,B8

# Target: T1, human PD-L2 antigen
# Test: as above
# Conditions: Table 3; preferred embodiments by Biacore
row,kd,Molecule
1,0.000129 s⁻¹,B1
2,0.000121 s⁻¹,B3
3,0.000121 s⁻¹,B4
4,9.72e-05 s⁻¹,B5
5,0.000128 s⁻¹,B6
6,0.000444 s⁻¹,B7
7,0.000118 s⁻¹,B8
